The values below come from publication PMC10866687.

The target of the assay is GFP-tagged Tks5 (GFP-Tks5), in 293T cells. Kind of assay: coimmunoprecipitation (IP FLAG, immunoblot quantification). The conditions noted are these: n = 4 experiments, parent: est. 100, read off a plot. In general terms: Immunoblotting shows a protein as a band on a membrane.
With “FLAG-MAP1B-LC1 (wild type) (from UniProt P46821) K60A; P61A”, the percent of parent was found to be 78 % WT.
For “FLAG-MAP1B-LC1 (wild type) (from UniProt P46821) K95A; P96A” the value was 110 % WT; for “FLAG-MAP1B-LC1 (wild type) (from UniProt P46821) P6A; R7A”, 120 % WT.
For “FLAG-MAP1B-LC1 (wild type) (from UniProt P46821) P66A; K67A; P68A” the value was 70 % WT; for “FLAG-MAP1B-LC1 (wild type) (from UniProt P46821) P145A; P146A”, 130 % WT; for “FLAG-MAP1B-LC1 (wild type) (from UniProt P46821) K41A; P42A”, 120 % WT.
